From PMC2889002

Biological target: GST fusion of the full-length cytoplasmic loop of connexin43 (GST-CLFL) (UniProt P23242)
Assay: pull-down

UniProt P23242, sequence (P23242 98-155): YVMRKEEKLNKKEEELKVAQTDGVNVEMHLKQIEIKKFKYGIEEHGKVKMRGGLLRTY

With “β-tubulin (Tubulin β5/2c) of mouse brain (from UniProt P99024 1-444) (natural protein)” the affinity relative to that of Cx43-CT for β-tubulin was 0.2 fold.
